PMC5814829

T1: ScPif1p DM (Saccharomyces cerevisiae, UniProt P07271 237-780, E242A;K273A;R281A)
T1 sequence: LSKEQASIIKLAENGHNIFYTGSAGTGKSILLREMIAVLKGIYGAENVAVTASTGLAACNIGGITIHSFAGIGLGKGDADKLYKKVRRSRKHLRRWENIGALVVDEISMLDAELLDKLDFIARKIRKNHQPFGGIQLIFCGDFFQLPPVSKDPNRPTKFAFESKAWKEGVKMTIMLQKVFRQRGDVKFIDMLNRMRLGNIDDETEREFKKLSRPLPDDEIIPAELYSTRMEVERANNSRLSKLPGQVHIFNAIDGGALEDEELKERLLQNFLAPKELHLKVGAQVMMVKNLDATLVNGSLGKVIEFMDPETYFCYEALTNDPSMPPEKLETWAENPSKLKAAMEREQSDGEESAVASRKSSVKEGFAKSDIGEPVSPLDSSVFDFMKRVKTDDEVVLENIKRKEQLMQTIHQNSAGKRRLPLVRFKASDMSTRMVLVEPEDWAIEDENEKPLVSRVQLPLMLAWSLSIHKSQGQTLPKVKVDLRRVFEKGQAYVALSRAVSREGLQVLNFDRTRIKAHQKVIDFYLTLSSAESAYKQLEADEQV

T2: ScPif1p E681G (Saccharomyces cerevisiae, UniProt P07271 237-780, E681G)
T2 sequence: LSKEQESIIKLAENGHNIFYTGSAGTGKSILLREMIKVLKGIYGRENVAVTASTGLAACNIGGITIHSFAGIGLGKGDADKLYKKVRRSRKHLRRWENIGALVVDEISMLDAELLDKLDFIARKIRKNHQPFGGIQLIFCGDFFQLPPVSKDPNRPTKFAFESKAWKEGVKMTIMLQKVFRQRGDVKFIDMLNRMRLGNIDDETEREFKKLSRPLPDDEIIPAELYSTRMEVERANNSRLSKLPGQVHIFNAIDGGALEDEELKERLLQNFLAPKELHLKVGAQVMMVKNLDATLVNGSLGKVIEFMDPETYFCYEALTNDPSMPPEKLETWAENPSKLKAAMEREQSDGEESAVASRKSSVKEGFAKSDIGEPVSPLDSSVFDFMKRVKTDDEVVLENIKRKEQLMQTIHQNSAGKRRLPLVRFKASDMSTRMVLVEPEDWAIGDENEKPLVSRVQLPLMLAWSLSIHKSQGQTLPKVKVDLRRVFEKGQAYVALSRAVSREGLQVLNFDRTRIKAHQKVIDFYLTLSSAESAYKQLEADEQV

T3: ScPif1p R323A (Saccharomyces cerevisiae, UniProt P07271 237-780, R323A)
T3 sequence: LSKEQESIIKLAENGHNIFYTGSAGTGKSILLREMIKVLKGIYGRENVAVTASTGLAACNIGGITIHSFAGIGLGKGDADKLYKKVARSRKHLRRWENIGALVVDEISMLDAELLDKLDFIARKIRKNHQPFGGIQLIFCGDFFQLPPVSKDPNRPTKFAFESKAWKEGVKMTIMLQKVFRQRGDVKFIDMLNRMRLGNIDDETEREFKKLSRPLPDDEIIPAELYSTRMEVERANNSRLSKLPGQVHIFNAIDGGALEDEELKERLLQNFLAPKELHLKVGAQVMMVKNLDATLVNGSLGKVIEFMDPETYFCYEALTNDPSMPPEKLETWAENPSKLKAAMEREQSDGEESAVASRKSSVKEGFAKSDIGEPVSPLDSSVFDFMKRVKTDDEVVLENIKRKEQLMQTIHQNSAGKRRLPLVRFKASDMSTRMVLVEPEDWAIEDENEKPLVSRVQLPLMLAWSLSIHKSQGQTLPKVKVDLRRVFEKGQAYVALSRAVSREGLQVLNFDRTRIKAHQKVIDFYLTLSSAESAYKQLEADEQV

T4: ScPif1p R324N (Saccharomyces cerevisiae, UniProt P07271 237-780, R324N)
T4 sequence: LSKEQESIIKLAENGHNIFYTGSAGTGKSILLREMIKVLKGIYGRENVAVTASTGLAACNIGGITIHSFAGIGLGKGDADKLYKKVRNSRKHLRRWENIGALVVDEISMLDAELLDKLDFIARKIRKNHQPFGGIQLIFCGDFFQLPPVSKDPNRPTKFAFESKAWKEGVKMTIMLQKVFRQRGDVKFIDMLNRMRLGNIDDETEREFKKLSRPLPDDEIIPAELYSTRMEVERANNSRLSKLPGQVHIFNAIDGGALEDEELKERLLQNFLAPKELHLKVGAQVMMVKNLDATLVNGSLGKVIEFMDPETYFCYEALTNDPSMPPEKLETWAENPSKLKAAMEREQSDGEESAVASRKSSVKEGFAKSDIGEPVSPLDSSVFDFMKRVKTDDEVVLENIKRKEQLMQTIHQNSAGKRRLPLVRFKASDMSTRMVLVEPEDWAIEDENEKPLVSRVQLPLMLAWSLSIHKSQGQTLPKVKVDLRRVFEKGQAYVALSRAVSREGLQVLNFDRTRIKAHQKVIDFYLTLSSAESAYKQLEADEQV


Legend:
Test in all cases: fluorescence anisotropy
ScPif1p DM = target: T1, ScPif1p DM
ScPif1p E681G = target: T2, ScPif1p E681G
ScPif1p R323A = target: T3, ScPif1p R323A
ScPif1p R324N = target: T4, ScPif1p R324N

| Binder | Kd (ScPif1p DM) [nM] | Kd (ScPif1p E681G) [nM] | Kd (ScPif1p R323A) [nM] | Kd (ScPif1p R324N) [nM] |
| --- | --- | --- | --- | --- |
| AGGGTGGGTGGGTGGGT (structured_DNA) [F-G417] | 23.8 ± 2.5 | 76.5 ± 10.5 | 25.1 ± 1.4 | 87.9 ± 7.1 |
| dsDNA16bp (dsDNA) DNA 1: CTCTGCTCGACGGATT DNA 2: AATCCGTCGAGCAGAG | 95.5 ± 8.5 | 56.1 ± 11.6 | 100 ± 5.1 | 57.9 ± 1.1 |
| GTGTGTGTGGTG (ssDNA) [GR12] | 13.4 ± 0.8 | 12.4 ± 3.9 | 9.9 ± 0.4 | 11.4 ± 4.3 |
